Experimental findings from patent publication US20260139033A1 (PRANA THERAPIES, published 2026) are described below.

The Kd is the free concentration of one partner at which half of the binding sites on the other are occupied at equilibrium, for simple one-to-one binding.

Assay [1] addresses T1, recombinant human TSLP (human, UniProt Q969D9 29-159).
T1 construct: also called thymic stromal lymphopoietin
Nature of the assay: SPR (Biacore 3000, CM5 chip, 25 C): complex captured via protein A, TSLP as analyte, 1:1 fit; column 'TSLP binding(pM)'. How it is done: (§1) SPR studies were carried out on a Biacore 3000 instrument with a CM5 chip at 25° C. The running buffer comprised 25 mM Hepes, pH 7.5, 150 mM NaCl, 0.5 mg/ml BSA, 0.005% P20. Antibodies were captured via protein A using approximately a 1/50 dilution of each antibody in the running buffer and a 2-minute contact time at a 10 μl/min flow rate. Protein A was immobilized on a CM5 chip via standard amine coupling chemistry in 10 mM acetate pH 4.5. Approximately 800 RU of each antibody was captured. The surfaces were regenerated via a 10 mM glycine pH 1.5 between cycles. Between assays the chip was regenerated with a 2-minute pulse of 100 mM Phosphoric acid. Prior to setting up multicycle kinetic analysis analyte concentration was determined spectrophotometrically using an extinction coefficient of 72,880 M⁻¹ cm⁻¹ for IL4R and 18450 M⁻¹ cm⁻¹ for the TSLP proteins respectively. Analyte samples were prepared by diluting stocks into running buffer to a final concentration of 500 nM for the IL-4R and 25 nM for TSLP followed by serially diluting with a 2-fold series with an association time of 2.5 minutes at a 50 μl/min flow rate. Dissociation data was collected for a period of 1600 seconds. Raw data was analyzed using the Scrubber2 (Biologic Software, AU) program using a double referencing procedure where compound signal is corrected to a blank surface and a buffer injection over the captured antibody surface. Kinetic data was analyzed by fitting to a simple 1:1 binding model. […] The candidates are further described in Table 3.
In general terms: In SPR one partner is held on a chip, and binding of the other changes the refractive index at the surface.

The target in assay [2] is IL-4R on human donor PBMC (B-cells) (human, UniProt P24394 26-825). Briefly: cell-based or functional assay.
Assay [3] deals with T1, recombinant human TSLP. Briefly: cell-based or functional assay.
For assay [4], the target named is T1, recombinant human TSLP. Briefly: SPR; column 'SPR (Biophysical binding): TSLP (pM)'. How it is done:
as §1

B1: Candidate-25 (TRAP-2) (bispecific antibody, human IgG4 S228P, kappa)
heavy chain: EVQLVESGGGLEQPGGSLRLSCAGSGFTFRDYAMTWVRQAPGKGLEWVSSISGSGGNTYYADSVKGRFTISRDNSKNTLYLQMNSLRAEDTAVYYCAKDRLSITIRPRYYGLDVWGQGTTVTVSSASTKGPSVFPLAPCSRSTSESTAALGCLVKDYFPEPVTVSWNSGALTSGVHTFPAVLQSSGLYSLSSVVTVPSSSLGTKTYTCNVDHKPSNTKVDKRVESKYGPPCPPCPAPEFLGGPSVFLFPPKPKDTLYITREPEVTCVVVDVSQEDPEVQFNWYVDGVEVHNAKTKPREEQFNSTYRVVSVLTVLHQDWLNGKEYKCKVSNKGLPSSIEKTISKAKGQPREPQVYTLPPSQEEMTKNQVSLTCLVKGFYPSDIAVEWESNGQPENNYKTTPPVLDSDGSFFLYSRLTVDKSRWQEGNVFSCSVMHEALHNHYTQKSLSLSLG
light chain with N-terminal TSLP TRAP 2 (TSLP-TRAP, first linker, dupilumab-YTE light chain): ESGYAQNGDLEDAELDDYSFSCYSQLEVNGSQHSLTCAFEDPDVNITNLEFEICGALVEVKCLNFRKLQEIYFIETKKFLLIGKSNICVKVGEKSLTCKKIDLTTIVKPEAPFDLSVVYREGANDFVVTFNTSHLQKKYVKVLMHDVAYRQEKDENKWTHVNLSSTKLTLLQRKLQPAAMYEIKVRSIPDHYFKGFWSEWSPSYYFRTPEINNSSGEMDGGSGGSGGSGGSGGSGGSGGSGGSGGSGGSGGSGGSGGSGGSGGSGGSGGSGGSGGSGGSGAAEGVQIQIIYFNLETVQVTWNASKYSRTNLTFHYRFNGDEAYDQCTNYLLQEGHTSGCLLDAEQRDDILYFSIRNGTHPVFTASRWMVYYLKPSSPKHVRFSWHQDAVTVTCSDLSYGDLLYEVQYRSPFDTEWQSKQENTCNVTIEGLDAEKCYSFWVRVKAMEDVYGPDTYPSDWSEVTCWQRGEIRDACAETPTPPKPKLSKGGGGSGGGGSGGGGSGGGGSDIVMTQSPLSLPVTPGEPASISCRSSQSLLYSIGYNYLDWYLQKSGQSPQLLIYLGSNRASGVPDRFSGSGSGTDFTLKISRVEAEDVGFYYCMQALQTPYTFGQGTKLEIKRTVAAPSVFIFPPSDEQLKSGTASVVCLLNNFYPREAKVQWKVDNALQSGNSQESVTEQDSKDSTYSLSSTLTLSKADYEKHKVYACEVTHQGLSSPVTKSFNRGEC
notes: also called Light chain N-terminal TRAP: TSLP TRAP 2_Linker-GS4_Dupilumab-YTE [2 x TRAP 2]
On to B1, for which, in assay [1], the Kd came to 0.0166 nM.

B2: Candidate-23: Dupilumab-YTE_Linker-GS4_TSLP TRAP 1 (bispecific antibody, human IgG4 S228P, kappa)
heavy: EVQLVESGGGLEQPGGSLRLSCAGSGFTFRDYAMTWVRQAPGKGLEWVSSISGSGGNTYYADSVKGRFTISRDNSKNTLYLQMNSLRAEDTAVYYCAKDRLSITIRPRYYGLDVWGQGTTVTVSSASTKGPSVFPLAPCSRSTSESTAALGCLVKDYFPEPVTVSWNSGALTSGVHTFPAVLQSSGLYSLSSVVTVPSSSLGTKTYTCNVDHKPSNTKVDKRVESKYGPPCPPCPAPEFLGGPSVFLFPPKPKDTLYITREPEVTCVVVDVSQEDPEVQFNWYVDGVEVHNAKTKPREEQFNSTYRVVSVLTVLHQDWLNGKEYKCKVSNKGLPSSIEKTISKAKGQPREPQVYTLPPSQEEMTKNQVSLTCLVKGFYPSDIAVEWESNGQPENNYKTTPPVLDSDGSFFLYSRLTVDKSRWQEGNVFSCSVMHEALHNHYTQKSLSLSLGGGGGSGGGGSGGGGSGGGGSGAAEGVQIQIIYFNLETVQVTWNASKYSRTNLTFHYRFNGDEAYDQCTNYLLQEGHTSGCLLDAEQRDDILYFSIRNGTHPVFTASRWMVYYLKPSSPKHVRFSWHQDAVTVTCSDLSYGDLLYEVQYRSPFDTEWQSKQENTCNVTIEGLDAEKCYSFWVRVKAMEDVYGPDTYPSDWSEVTCWQRGEIRDACAETPTPPKPKLSKGGSGGSGGSGGSGGSGGSGGSGGSGGSGGSGGSGGSGGSGGSGGSGGSGGSGGSGGSGGSESGYAQNGDLEDAELDDYSFSCYSQLEVNGSQHSLTCAFEDPDVNITNLEFEICGALVEVKCLNFRKLQEIYFIETKKFLLIGKSNICVKVGEKSLTCKKIDLTTIVKPEAPFDLSVVYREGANDFVVTFNTSHLQKKYVKVLMHDVAYRQEKDENKWTHVNLSSTKLTLLQRKLQPAAMYEIKVRSIPDHYFKGFWSEWSPSYYFRTPEINNSSGEMD
light: DIVMTQSPLSLPVTPGEPASISCRSSQSLLYSIGYNYLDWYLQKSGQSPQLLIYLGSNRASGVPDRFSGSGSGTDFTLKISRVEAEDVGFYYCMQALQTPYTFGQGTKLEIKRTVAAPSVFIFPPSDEQLKSGTASVVCLLNNFYPREAKVQWKVDNALQSGNSQESVTEQDSKDSTYSLSSTLTLSKADYEKHKVYACEVTHQGLSSPVTKSFNRGEC
notes: The chains here are built from the component entries; TRAP sits at the C-terminus of the heavy chain
Turning to B2, the “IC50, upregulation of CD23 in response to IL-4 in PBMCs” value in assay [2] was 17.1 nM. In assay [3], the “IC50, TARC secretion in response to TSLP in PBMCs” value is 1.7 nM. Also, the Kd in assay [4] and in assay [1] was 0.0259 nM each time.

B3: Candidate-24: Dupilumab-YTE_Linker-GS4_TSLP TRAP 2 (bispecific antibody, human IgG4 S228P, kappa)
heavy: EVQLVESGGGLEQPGGSLRLSCAGSGFTFRDYAMTWVRQAPGKGLEWVSSISGSGGNTYYADSVKGRFTISRDNSKNTLYLQMNSLRAEDTAVYYCAKDRLSITIRPRYYGLDVWGQGTTVTVSSASTKGPSVFPLAPCSRSTSESTAALGCLVKDYFPEPVTVSWNSGALTSGVHTFPAVLQSSGLYSLSSVVTVPSSSLGTKTYTCNVDHKPSNTKVDKRVESKYGPPCPPCPAPEFLGGPSVFLFPPKPKDTLYITREPEVTCVVVDVSQEDPEVQFNWYVDGVEVHNAKTKPREEQFNSTYRVVSVLTVLHQDWLNGKEYKCKVSNKGLPSSIEKTISKAKGQPREPQVYTLPPSQEEMTKNQVSLTCLVKGFYPSDIAVEWESNGQPENNYKTTPPVLDSDGSFFLYSRLTVDKSRWQEGNVFSCSVMHEALHNHYTQKSLSLSLGGGGGSGGGGSGGGGSGGGGSESGYAQNGDLEDAELDDYSFSCYSQLEVNGSQHSLTCAFEDPDVNITNLEFEICGALVEVKCLNFRKLQEIYFIETKKFLLIGKSNICVKVGEKSLTCKKIDLTTIVKPEAPFDLSVVYREGANDFVVTFNTSHLQKKYVKVLMHDVAYRQEKDENKWTHVNLSSTKLTLLQRKLQPAAMYEIKVRSIPDHYFKGFWSEWSPSYYFRTPEINNSSGEMDGGSGGSGGSGGSGGSGGSGGSGGSGGSGGSGGSGGSGGSGGSGGSGGSGGSGGSGGSGGSGAAEGVQIQIIYFNLETVQVTWNASKYSRTNLTFHYRFNGDEAYDQCTNYLLQEGHTSGCLLDAEQRDDILYFSIRNGTHPVFTASRWMVYYLKPSSPKHVRFSWHQDAVTVTCSDLSYGDLLYEVQYRSPFDTEWQSKQENTCNVTIEGLDAEKCYSFWVRVKAMEDVYGPDTYPSDWSEVTCWQRGEIRDACAETPTPPKPKLSK
light: B2 light
notes: as for B2
As for B3, the “IC50, upregulation of CD23 in response to IL-4 in PBMCs” value in assay [2] came to 12.5 nM. The “IC50, TARC secretion in response to TSLP in PBMCs” value in assay [3] was determined as 4.3 nM. In addition, the Kd in assay [4] and in assay [1] was 0.0168 nM in each case.

B4: Candidate-5 (TRAP-2) (other)
heavy chain with C-terminal TSLP TRAP 2 (palivizumab-YTE heavy chain, first linker, TSLP-TRAP): QVTLRESGPALVKPTQTLTLTCTFSGFSLSTSGMSVGWIRQPPGKALEWLADIWWDDKKDYNPSLKSRLTISKDTSANQVVLKVTNMDPADTATYYCARSMITNWYFDVWGAGTTVTVSSASTKGPSVFPLAPCSRSTSESTAALGCLVKDYFPEPVTVSWNSGALTSGVHTFPAVLQSSGLYSLSSVVTVPSSSLGTKTYTCNVDHKPSNTKVDKRVESKYGPPCPPCPAPEFLGGPSVFLFPPKPKDTLYITREPEVTCVVVDVSQEDPEVQFNWYVDGVEVHNAKTKPREEQFNSTYRVVSVLTVLHQDWLNGKEYKCKVSNKGLPSSIEKTISKAKGQPREPQVYTLPPSQEEMTKNQVSLTCLVKGFYPSDIAVEWESNGQPENNYKTTPPVLDSDGSFFLYSRLTVDKSRWQEGNVFSCSVMHEALHNHYTQKSLSLSLGGGGGSGGGGSGGGGSGGGGSESGYAQNGDLEDAELDDYSFSCYSQLEVNGSQHSLTCAFEDPDVNITNLEFEICGALVEVKCLNFRKLQEIYFIETKKFLLIGKSNICVKVGEKSLTCKKIDLTTIVKPEAPFDLSVVYREGANDFVVTFNTSHLQKKYVKVLMHDVAYRQEKDENKWTHVNLSSTKLTLLQRKLQPAAMYEIKVRSIPDHYFKGFWSEWSPSYYFRTPEINNSSGEMDGGSGGSGGSGGSGGSGGSGGSGGSGGSGGSGGSGGSGGSGGSGGSGGSGGSGGSGGSGGSGAAEGVQIQIIYFNLETVQVTWNASKYSRTNLTFHYRFNGDEAYDQCTNYLLQEGHTSGCLLDAEQRDDILYFSIRNGTHPVFTASRWMVYYLKPSSPKHVRFSWHQDAVTVTCSDLSYGDLLYEVQYRSPFDTEWQSKQENTCNVTIEGLDAEKCYSFWVRVKAMEDVYGPDTYPSDWSEVTCWQRGEIRDACAETPTPPKPKLSK
light chain: DIQMTQSPSTLSASVGDRVTITCKCQLSVGYMHWYQQKPGKAPKLLIYDTSKLASGVPSRFSGSGSGTAFTLTISSLQPDDFATYYCFQGSGYPFTFGGGTKLEIKRTVAAPSVFIFPPSDEQLKSGTASVVCLLNNFYPREAKVQWKVDNALQSGNSQESVTEQDSKDSTYSLSSTLTLSKADYEKHKVYACEVTHQGLSSPVTKSFNRGEC
notes: Monospecific TSLP-TRAP complex on palivizumab (human IgG4 S228P, YTE)
Consider B4, for which the equilibrium dissociation constant (Kd) in assay [1] was determined as 0.0013 nM.

B5: dupilumab (antibody, V domains shown)
VH: EVQLVESGGGLEQPGGSLRLSCAGSGFTFRDYAMTWVRQAPGKGLEWVSSISGSGGNTYYADSVKGRFTISRDNSKNTLYLQMNSLRAEDTAVYYCAKDRLSITIRPRYYGLDVWGQGTTVTVS
VL: DIVMTQSPLSLPVTPGEPASISCRSSQSLLYSIGYNYLDWYLQKSGQSPQLLIYLGSNRASGVPDRFSGSGSGTDFTLKISRVEAEDVGFYYCMQALQTPYTFGQGTKLEIK
Turning to B5, the “IC50, IL-4 biological assay (CD23 upregulation in PBMCs)” value in assay [2] was determined as 4.7 nM.
